Reference: patent US20240261333A1, “NOVEL TARGETS FOR ENHANCING ANTI-TUMOR IMMUNITY” (THE BROAD INSTITUTE, INC., priority 2021, published 2024)

Tests used:
Test in all cases: co-IP, IgG control, N-FLAG B3GNT2 cell lysate, mass spectrometry
HIST1H1E = HIST1H1E (UniProt P10412)
RPS8 = RPS8 (UniProt P62241)
RPL27A = RPL27A (UniProt P46776)
POF1B = POF1B (UniProt Q8WVV4)
NCCRP1 = NCCRP1 (UniProt Q6ZVX7)
Chain of NCCRP1 (Q6ZVX7 whole entry): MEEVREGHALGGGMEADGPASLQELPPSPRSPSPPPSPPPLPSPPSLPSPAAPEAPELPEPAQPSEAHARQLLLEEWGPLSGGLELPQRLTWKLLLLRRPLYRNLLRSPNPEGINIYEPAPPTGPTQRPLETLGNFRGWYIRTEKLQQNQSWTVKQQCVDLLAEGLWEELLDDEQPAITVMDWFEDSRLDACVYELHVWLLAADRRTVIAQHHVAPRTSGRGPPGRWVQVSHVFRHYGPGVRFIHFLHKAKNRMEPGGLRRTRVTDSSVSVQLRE

Chain of POF1B (Q8WVV4 other isoform, or with tags, fused parts or gaps limits assumed): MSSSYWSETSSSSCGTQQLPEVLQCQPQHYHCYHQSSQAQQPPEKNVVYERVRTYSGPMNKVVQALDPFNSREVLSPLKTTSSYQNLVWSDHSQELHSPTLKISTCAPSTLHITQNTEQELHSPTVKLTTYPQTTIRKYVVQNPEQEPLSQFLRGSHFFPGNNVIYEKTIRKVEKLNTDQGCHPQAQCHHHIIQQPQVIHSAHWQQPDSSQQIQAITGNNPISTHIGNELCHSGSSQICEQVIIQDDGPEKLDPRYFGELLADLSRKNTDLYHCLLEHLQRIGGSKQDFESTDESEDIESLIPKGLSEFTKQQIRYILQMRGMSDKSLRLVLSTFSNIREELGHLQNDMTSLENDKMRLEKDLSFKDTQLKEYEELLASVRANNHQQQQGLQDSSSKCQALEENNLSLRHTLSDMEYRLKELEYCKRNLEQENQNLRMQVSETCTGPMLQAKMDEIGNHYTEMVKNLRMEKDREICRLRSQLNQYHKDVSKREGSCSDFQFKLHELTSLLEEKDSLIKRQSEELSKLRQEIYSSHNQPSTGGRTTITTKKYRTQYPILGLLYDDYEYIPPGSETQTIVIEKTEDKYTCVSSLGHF
Chain of HIST1H1E (P10412 2-219 limits assumed): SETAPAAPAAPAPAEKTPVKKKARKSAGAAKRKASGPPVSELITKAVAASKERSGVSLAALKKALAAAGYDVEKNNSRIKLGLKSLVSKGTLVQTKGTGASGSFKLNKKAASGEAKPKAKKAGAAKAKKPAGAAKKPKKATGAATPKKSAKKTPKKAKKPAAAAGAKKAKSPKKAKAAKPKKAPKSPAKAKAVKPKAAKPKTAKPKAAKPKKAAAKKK

Question: Which co-IP mass spectrometry count (HIST1H1E) does the source give for “IgG control (Millipore Sigma 12-371) (antibody)” here?
Answer: 2

Question: What about the co-IP mass spectrometry count (RPS8) of the same substance?
Answer: 7

Question: What about the co-IP mass spectrometry count (RPL27A) of the same substance?
Answer: 3

Question: And the co-IP mass spectrometry count (POF1B)?
Answer: 0

Question: What about the co-IP mass spectrometry count (NCCRP1) of the same substance?
Answer: 4
